Assay results: patent publication US20220275083A1 (EUTILEX, published 2022)

T1: biotinylated PD-L2 (SinoBiologics, Cat. No. 10292-H08H-B) (UniProt Q9BQ51 20-219, biotinylated)
T1 construct: Bought antigen
T1 sequence (looked up): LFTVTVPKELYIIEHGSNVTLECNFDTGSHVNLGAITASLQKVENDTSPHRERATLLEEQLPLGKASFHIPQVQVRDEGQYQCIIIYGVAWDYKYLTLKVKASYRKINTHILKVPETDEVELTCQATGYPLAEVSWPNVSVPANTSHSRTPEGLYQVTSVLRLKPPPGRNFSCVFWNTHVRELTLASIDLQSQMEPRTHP


How the values were obtained:
4-1BB antigen (abclon) = target: T2, 4-1BB antigen (abclon) (UniProt Q07011 24-186); assay: SPR, Biacore T200; variant captured on CM5, 4-1BB antigen injected
T2 construct: Bought antigen
T2 sequence (Q07011 24-186): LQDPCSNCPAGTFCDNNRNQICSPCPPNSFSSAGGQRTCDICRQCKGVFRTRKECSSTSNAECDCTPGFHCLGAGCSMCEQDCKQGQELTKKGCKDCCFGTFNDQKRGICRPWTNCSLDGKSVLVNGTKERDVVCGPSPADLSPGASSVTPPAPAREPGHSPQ
Experimental: (§1) Affinity to 4-1BB was determined using the bispecific epitope binding protein variants diluted to 5 μg/ml and then fixed to CM5 chip (Cytiva, BR-1005-30) with human capture (Cytiva, Cat. No. BR-1008-39). The 4-1BB antigen (abclon) was injected at concentrations of 100, 50, 25, 12.5, 6.25, and 3.125 nM, the association time was set to 150 seconds, and the dissociation time was set to 240 seconds. Biacore T200 (cytiva) was used as the analysis equipment.

[1] = target: T3, PD-L1 antigen (SinoBiologics, Cat. No. 10084-H08H) (human, UniProt Q9NZQ7 19-238); assay: SPR, Biacore T200; variant captured on CM5, PD-L1 antigen injected
T3 construct: Bought antigen; also called human PD-L1
T3 sequence (Q9NZQ7 19-238 limits assumed): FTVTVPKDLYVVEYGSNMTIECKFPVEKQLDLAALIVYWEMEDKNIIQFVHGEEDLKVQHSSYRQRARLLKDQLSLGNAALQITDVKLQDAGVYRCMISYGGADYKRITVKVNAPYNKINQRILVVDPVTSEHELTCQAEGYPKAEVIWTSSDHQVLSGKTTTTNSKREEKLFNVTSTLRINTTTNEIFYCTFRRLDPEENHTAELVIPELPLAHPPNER
Experimental: as §1
(§2) Affinity to PD-L1 was determined using the bispecific epitope binding protein variants diluted to 10 μg/ml and then fixed to CM5 chip with human capture.

[2] = target: T3, PD-L1 antigen (SinoBiologics, Cat. No. …); assay: SPR, Biacore T200; comparison of S03 with human PD-1-Fc
[3] = target: T3, PD-L1 antigen (SinoBiologics, Cat. No. …); assay: SPR, Biacore T200; S03 captured on CM5, PD-L1 antigen injected (same values as Table 2)
Experimental: as §1, §2

[4] = target: T1, biotinylated PD-L2 (SinoBiologics, Cat. …); assay: ELISA, S03 coated in 4-fold dilutions up to 0.1 ug/ml, biotinylated PD-L2 0.1 ug/ml, avidin-HRP
[5] = target: T4, biotinylated C1q (comp Tech, Cat. No. A099) protein (UniProt P02745 23-245; P02746 28-253; P02747 29-245, biotinylated (chain not stated)); assay: C1q ELISA, S03 coated at 75 nM, biotinylated C1q titrated in 2-fold steps from 2 ug/ml, avidin-HRP
T4 construct: Bought C1q, biotinylated with a kit
T4 sequence (P02745 23-245, chain 1 of 3): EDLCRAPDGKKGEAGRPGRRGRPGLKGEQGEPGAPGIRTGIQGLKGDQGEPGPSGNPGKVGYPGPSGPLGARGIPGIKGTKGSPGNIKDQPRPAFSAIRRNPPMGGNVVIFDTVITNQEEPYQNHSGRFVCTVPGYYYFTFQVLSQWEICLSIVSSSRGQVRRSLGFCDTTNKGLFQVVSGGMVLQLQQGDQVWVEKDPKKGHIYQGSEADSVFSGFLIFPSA
T4 sequence (P02746 28-253, chain 2 of 3): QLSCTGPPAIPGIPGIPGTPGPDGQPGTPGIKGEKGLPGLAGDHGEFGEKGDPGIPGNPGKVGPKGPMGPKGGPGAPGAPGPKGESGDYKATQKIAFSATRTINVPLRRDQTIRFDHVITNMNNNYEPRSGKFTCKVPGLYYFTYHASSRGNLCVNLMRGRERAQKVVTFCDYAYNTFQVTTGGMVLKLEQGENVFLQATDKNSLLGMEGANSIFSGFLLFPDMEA
T4 sequence (P02747 29-245, chain 3 of 3): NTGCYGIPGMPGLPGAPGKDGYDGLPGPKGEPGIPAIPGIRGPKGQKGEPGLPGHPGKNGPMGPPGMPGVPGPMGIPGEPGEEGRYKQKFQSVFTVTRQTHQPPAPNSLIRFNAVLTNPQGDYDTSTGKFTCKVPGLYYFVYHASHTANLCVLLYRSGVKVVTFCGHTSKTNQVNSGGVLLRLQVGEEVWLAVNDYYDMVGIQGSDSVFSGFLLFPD

[6] = target: T3, PD-L1 antigen (SinoBiologics, Cat. No. …); assay: SPR, Biacore T200; S03 captured on CM5, PD-L1 antigen injected (same values as Table 2); Table 3, comparison with natural PD1-Fc
[7] = target: T3, PD-L1 antigen (SinoBiologics, Cat. No. …); assay: dual antigen ELISA: PD-L1 coated, S03 titrated, detected with biotinylated 4-1BB and avidin-HRP (signal needs both antigens)
[8] = target: T3, PD-L1 antigen (SinoBiologics, Cat. No. …); assay: ELISA, PD-L1 antigen coated, anti-human IgG Fc-HRP detection, 11 points

| Kd (4-1BB antigen (abclon)) | koff (4-1BB antigen (abclon)) | kon (4-1BB antigen (abclon)) | Kd [1] | koff [1] | kon [1] | fold stronger binding than natural PD-1 (human PD-1-Fc) [2] | Kd [3] | koff [3] | binding result [5] | kon [6] | EC50 (read off the curve) [7] | Binder | binding result [4] | binding result [8] |
| --- | --- | --- | --- | --- | --- | --- | --- | --- | --- | --- | --- | --- | --- | --- |
| 2.3 nM | 0.000601 s⁻¹ | 262000 M⁻¹ s⁻¹ | 3.73 nM | 0.00141 s⁻¹ | 377000 M⁻¹ s⁻¹ | – | – | – | – | – | – | bispecific epitope binding protein S10 (bispecific antibody, engineered IgG1 Fc; carries euPD-1) heavy: QVQLVQSGAEVKKPGASVKLSCKASGYTFSSYWMHWVRQAPGQGLEWIGEINPGNGHTNYNEKFKSRVTMTRDTSTSTAYMELSSLRSEDTAVYYCARSFKTARAFAYWGQGTLVTVSSASTKGPSVFPLAPSSKSTSGGTAALGCLVKDYFPEPVTVSWNSGALTSGVHTFPAVLQSSGLYSLSSVVTVPSSSLGTQTYICNVNHKPSNTKVDKKVEPKSCDKTHTCPPCPAPEAAGGPSVFLFPPKPKDTLMISRTPEVTCVVVDVSHEDPEVKFNWYVDGVEVHNAKTKPREEQYNSTYRVVSVLTVLHQDWLNGKEYKCAVSNKALPAPIEKTISKAKGQPREPQVYTLPPSREEMTKNQVSLTCLVKGFYPSDIAVEWESNGQPENNYKTTPPVLDSDGSFFLYSKLTVDKSRWQQGNVFSCSVMHEALHNHYTQKSLSLSPGGSTSGSGKPGSGEGSTKGSFLESPDRPWNAPTFSPALLLVAEGDNATFTCSFSNASESFHVVWHRESPSGQTDTLAAFPEDRSQPGQDHRFRVTRLPNGRDFHMSVVRAQRNDSGTYVCGVISLAPKIQIKESLRAELRVTERRAEVPTAHPSPSPRPAGQFQTLVVG light: DIVMTQSPAFLSVTPGEKVTITCRASQTISDYLHWYQQKPDQAPKLLIKYASQSISGIPSRFSGSGSGTDFTFTISSLEAEDAATYYCQDGHSWPPTFGQGTKLEIKRTVAAPSVFIFPPSDEQLKSGTASVVCLLNNFYPREAKVQWKVDNALQSGNSQESVTEQDSKDSTYSLSSTLTLSKADYEKHKVYACEVTHQGLSSPVTKSFNRGEC | – | – |
| 3.67 nM | 0.000658 s⁻¹ | 179000 M⁻¹ s⁻¹ | 4.06 nM | 0.00132 s⁻¹ | 324000 M⁻¹ s⁻¹ | – | – | – | – | – | – | bispecific epitope binding protein S02 (bispecific antibody, Anti-4-1BB 94kvt scFv x euPD-1 with hinge and engineered IgG1 Fc) QVQLVQSGAEVKKPGASVKLSCKASGYTFSSYWMHWVRQAPGQGLEWIGEINPGNGHTNYNEKFKSRVTMTRDTSTSTAYMELSSLRSEDTAVYYCARSFKTARAFAYWGQGTLVTVSSGSTSGSGKPGSGEGSTKGDIVMTQSPAFLSVTPGEKVTITCRASQTISDYLHWYQQKPDQAPKLLIKYASQSISGIPSRFSGSGSGTDFTFTISSLEAEDAATYYCQDGHSWPPTFGQGTKLEIKASGGGGSGGGGSDKTHTCPPCPAPEAAGGPSVFLFPPKPKDTLMISRTPEVTCVVVDVSHEDPEVKFNWYVDGVEVHNAKTKPREEQYNSTYRVVSVLTVLHQDWLNGKEYKCAVSNKALPAPIEKTISKAKGQPREPQVYTLPPSREEMTKNQVSLTCLVKGFYPSDIAVEWESNGQPENNYKTTPPVLDSDGSFFLYSKLTVDKSRWQQGNVFSCSVMHEALHNHYTQKSLSLSPGGGGGSGGGGSFLESPDRPWNAPTFSPALLLVAEGDNATFTCSFSNASESFHVVWHRESPSGQTDTLAAFPEDRSQPGQDHRFRVTRLPNGRDFHMSVVRAQRNDSGTYVCGVISLAPKIQIKESLRAELRVTERRAEVPTAHPSPSPRPAGQFQTLVVGGGGGSGGGGSGGGGSFLESPDRPWNAPTFSPALLLVAEGDNATFTCSFSNASESFHVVWHRESPSGQTDTLAAFPEDRSQPGQDHRFRVTRLPNGRDFHMSVVRAQRNDSGTYVCGVISLAPKIQIKESLRAELRVTERRAEVPTAHPSPSPRPAGQFQTLVVG | – | – |
| 3.05 nM | 0.000634 s⁻¹ | 208000 M⁻¹ s⁻¹ | 5.07 nM | 0.00115 s⁻¹ | 227000 M⁻¹ s⁻¹ | ~93 fold | 5.07 nM | 0.00115 s⁻¹ | no binding (tested: 2 ug/ml C1q) | 227000 M⁻¹ s⁻¹ | ~0.05 µg/mL | bispecific epitope binding protein S03 (bispecific antibody, Anti-4-1BB 94kvt scFv x euPD-1 with hinge and engineered IgG1 Fc (L234A, L235A, K322A, D356E, L358M)) DIVMTQSPAFLSVTPGEKVTITCRASQTISDYLHWYQQKPDQAPKLLIKYASQSISGIPSRFSGSGSGTDFTFTISSLEAEDAATYYCQDGHSWPPTFGQGTKLEIKGSTSGSGKPGSGEGSTKGQVQLVQSGAEVKKPGASVKLSCKASGYTFSSYWMHWVRQAPGQGLEWIGEINPGNGHTNYNEKFKSRVTMTRDTSTSTAYMELSSLRSEDTAVYYCARSFKTARAFAYWGQGTLVTVSSASGGGGSGGGGSDKTHTCPPCPAPEAAGGPSVFLFPPKPKDTLMISRTPEVTCVVVDVSHEDPEVKFNWYVDGVEVHNAKTKPREEQYNSTYRVVSVLTVLHQDWLNGKEYKCAVSNKALPAPIEKTISKAKGQPREPQVYTLPPSREEMTKNQVSLTCLVKGFYPSDIAVEWESNGQPENNYKTTPPVLDSDGSFFLYSKLTVDKSRWQQGNVFSCSVMHEALHNHYTQKSLSLSPGGGGGSGGGGSFLESPDRPWNAPTFSPALLLVAEGDNATFTCSFSNASESFHVVWHRESPSGQTDTLAAFPEDRSQPGQDHRFRVTRLPNGRDFHMSVVRAQRNDSGTYVCGVISLAPKIQIKESLRAELRVTERRAEVPTAHPSPSPRPAGQFQTLVVG | no binding (tested: log10 2.0 ng/mL (100 ng/mL coated)) | – |
| – | – | – | – | – | – | – | – | – | – | – | – | S13 (PD-L1 null variant of S03) (bispecific antibody) DIVMTQSPAFLSVTPGEKVTITCRASQTISDYLHWYQQKPDQAPKLLIKYASQSISGIPSRFSGSGSGTDFTFTISSLEAEDAATYYCQDGHSWPPTFGQGTKLEIKGSTSGSGKPGSGEGSTKGQVQLVQSGAEVKKPGASVKLSCKASGYTFSSYWMHWVRQAPGQGLEWIGEINPGNGHTNYNEKFKSRVTMTRDTSTSTAYMELSSLRSEDTAVYYCARSFKTARAFAYWGQGTLVTVSSASGGGGSGGGGSDKTHTCPPCPAPEAAGGPSVFLFPPKPKDTLMISRTPEVTCVVVDVSHEDPEVKFNWYVDGVEVHNAKTKPREEQYNSTYRVVSVLTVLHQDWLNGKEYKCAVSNKALPAPIEKTISKAKGQPREPQVYTLPPSREEMTKNQVSLTCLVKGFYPSDIAVEWESNGQPENNYKTTPPVLDSDGSFFLYSKLTVDKSRWQQGNVFSCSVMHEALHNHYTQKSLSLSPGGGGGSGGGGSFLESPDRPWNAPTFSPALLLVAEGDNATFTCSFSNASESFHVVWHRESPSGQTDALAAFPEDRSQPGQDHRFRVTRLPNGRDFHMSVVRAQRNDSGTYVCGVASLAPKIQAKESLRAELRVTERRAEVPTAHPSPSPRPAGQFQTLVVG | – | no binding (tested: log 1.7 ug/mL as drawn (about 50 ug/mL)) |
